Test results taken from publication PMC11480844.

B1: H2-Kb / B14 (parent)
chain 1: GEQVEQRPPHLSVREGDSAVIICTYTDPNSYYFFWYKQEPGAGLQLLMKVFSSTEINEGQGFTVLLNKKDKQLSLNLTAAHPGDSAVYFCAVSARGNMGYKLTFGTGTSLLVDP
chain 2: GGIITQTPKFLIGQEGQKLTLKCQQNFNHDTMYWYRQDSGKGLRLIYYSITENDLQKGDLSEGYDASREKKSSFSLTVTSAQKNEMAVFLCASSMGQGASDYTFGSGTRLLVI
chain 3: not shown
chain 4: IQKTPQIQVYSRHPPENGKPNILNCYVTQFHPPHIEIQMLKNGKKIPKVEMSDMSFSKDWSFYILAHTEFTPTETDTYACRVKHDSMAEPKTVYWDRDM
chain 5: SIINFEKL
B2: H2-Kb / B3 (parent)
chain 1: GQQVKQSSPSLTVQEGGISILNCDYENDMFDYFAWYKKYPDNSPTLLISVRSNVDKREDGRLTVFLNKSGKHFSLHITASQPEDTAVYLCAAGNTGYQNFYFGKGTSLTVIP
chain 2: DSGVVQSPRHIIKEKGGRSVLTCIPISGHSNVVWYQQTLGKELKFLIQHYEKVERDKGFLPSRFSVQQFDDYHSEMNMSALELEDSAMYFCASSSLQGARNQAPLFGEGTRLSVL
chain 3: not shown
chain 4: B1 chain 4
chain 5: SIINFEKL

Variants of: B1
Assay: % of reporter cells activated (NFAT-GFP), raw
Conditions: with B14; scale: % of reporter cells activated
Further: test concentration or dose not given here.

| Variant | ratio to parent |
| --- | --- |
| chain 5 N4H | 0.911 |
| chain 5 N4I | 0.484 |
| chain 5 N4K | 1.37 |
| chain 5 N4L | 0.822 |
| chain 5 N4M | 0.498 |
| chain 5 N4P | 1.38 |
| chain 5 N4Q | 1.07 |
| chain 5 N4R | 1.32 |
| chain 5 N4S | 1.1 |
| chain 5 N4T | 1.64 |
| chain 5 N4V | 1.42 |
| chain 5 N4W | 1.01 |
| chain 5 N4Y | 0.658 |
| chain 5 S1A | 0.942 |
| chain 5 S1C | 1.42 |
| chain 5 S1D | 1.38 |

| Variant | ratio to parent |
| --- | --- |
| chain 5 S1E | 0.867 |
| chain 5 S1F | 3.07 |
| chain 5 S1G | 0.596 |
| chain 5 S1H | 1.24 |
| chain 5 S1I | 0.76 |
| chain 5 S1K | 0.564 |
| chain 5 S1L | 1.13 |
| chain 5 S1M | 0.444 |
| chain 5 S1N | 0.231 |
| chain 5 S1P | 0.751 |
| chain 5 S1Q | 0.858 |
| chain 5 S1R | 2.04 |
| chain 5 S1T | 1.42 |
| chain 5 S1V | 8.49 |
| chain 5 S1W | 1.04 |
| chain 5 S1Y | 1.33 |

Variants of: B2
Assay: % of reporter cells activated (NFAT-GFP), raw
Conditions: with B3; scale: % of reporter cells activated

| Variant | ratio to parent |
| --- | --- |
| chain 5 E6A | 2.48 |
| chain 5 E6C | 2.48 |
| chain 5 E6D | 1.39 |
| chain 5 E6F | 2.13 |
| chain 5 E6G | 1.37 |
| chain 5 E6H | 0.651 |
| chain 5 E6I | 0.819 |
| chain 5 E6K | 0.587 |
| chain 5 E6L | 0.766 |
| chain 5 E6M | 0.793 |
| chain 5 E6N | 0.831 |
| chain 5 E6P | 1.43 |
| chain 5 E6Q | 0.961 |
| chain 5 E6R | 0.469 |
| chain 5 E6S | 1.25 |
| chain 5 E6T | 1.87 |
| chain 5 E6V | 2.28 |
| chain 5 E6W | 2.6 |
| chain 5 E6Y | 1.97 |
| chain 5 F5A | 0.437 |
| chain 5 F5C | 0.411 |
| chain 5 F5D | 0.272 |
| chain 5 F5E | 0.207 |

| Variant | ratio to parent |
| --- | --- |
| chain 5 F5G | 0.197 |
| chain 5 F5H | 0.428 |
| chain 5 F5I | 0.467 |
| chain 5 F5K | 0.121 |
| chain 5 F5L | 0.842 |
| chain 5 F5M | 0.771 |
| chain 5 F5N | 0.305 |
| chain 5 F5P | 0.228 |
| chain 5 F5Q | 0.343 |
| chain 5 F5R | 0.0406 |
| chain 5 F5S | 0.263 |
| chain 5 F5T | 0.842 |
| chain 5 F5V | 0.38 |
| chain 5 F5W | 0.399 |
| chain 5 F5Y | 0.918 |
| chain 5 I2A | 1.67 |
| chain 5 I2C | 1.29 |
| chain 5 I2D | 1.57 |
| chain 5 I2E | 0.706 |
| chain 5 I2F | 0.945 |
| chain 5 I2G | 1.01 |
| chain 5 I2H | 0.323 |
| chain 5 I2K | 0.551 |

| Variant | ratio to parent |
| --- | --- |
| chain 5 I2L | 1.35 |
| chain 5 I2M | 0.465 |
| chain 5 I2N | 0.605 |
| chain 5 I2P | 0.386 |
| chain 5 I2Q | 0.228 |
| chain 5 I2R | 0.777 |
| chain 5 I2S | 1.73 |
| chain 5 I2T | 2.16 |
| chain 5 I2V | 1.39 |
| chain 5 I2W | 0.631 |
| chain 5 I2Y | 0.308 |
| chain 5 I3A | 0.585 |
| chain 5 I3C | 0.787 |
| chain 5 I3D | 0.144 |
| chain 5 I3E | 0.956 |
| chain 5 I3F | 0.216 |
| chain 5 I3G | 0.273 |
| chain 5 I3H | 0.787 |
| chain 5 I3K | 0.322 |
| chain 5 I3L | 1.21 |
| chain 5 I3M | 1.73 |
| chain 5 I3N | 0.35 |
| chain 5 I3P | 1.7 |

| Variant | ratio to parent |
| --- | --- |
| chain 5 I3Q | 0.614 |
| chain 5 I3R | 0.0152 |
| chain 5 I3S | 1.32 |
| chain 5 I3T | 0.509 |
| chain 5 I3V | 0.59 |
| chain 5 I3W | 0.28 |
| chain 5 I3Y | 0.153 |
| chain 5 K7A | 0.18 |
| chain 5 K7C | 0.201 |
| chain 5 K7D | 0.0872 |
| chain 5 K7E | 0.175 |
| chain 5 K7F | 0.28 |
| chain 5 K7G | 0.0497 |
| chain 5 K7H | 0.553 |
| chain 5 K7I | 0.37 |
| chain 5 K7L | 0.488 |
| chain 5 K7M | 0.315 |
| chain 5 K7N | 0.601 |
| chain 5 K7P | 0.263 |
| chain 5 K7Q | 0.201 |
| chain 5 K7R | 0.199 |
| chain 5 K7S | 0.219 |
| chain 5 K7T | 0.253 |

| Variant | ratio to parent |
| --- | --- |
| chain 5 K7V | 0.215 |
| chain 5 K7W | 0.634 |
| chain 5 K7Y | 0.313 |
| chain 5 L8A | 0.21 |
| chain 5 L8C | 0.526 |
| chain 5 L8D | 0.434 |
| chain 5 L8E | 0.448 |
| chain 5 L8F | 0.341 |
| chain 5 L8G | 0.264 |
| chain 5 L8H | 0.547 |
| chain 5 L8I | 0.902 |
| chain 5 L8K | 0.331 |
| chain 5 L8M | 0.809 |
| chain 5 L8N | 0.885 |
| chain 5 L8P | 0.463 |
| chain 5 L8Q | 0.258 |
| chain 5 L8R | 0.837 |
| chain 5 L8S | 0.287 |
| chain 5 L8T | 0.7 |
| chain 5 L8V | 0.793 |
| chain 5 L8W | 0.462 |
| chain 5 L8Y | 0.619 |
| chain 5 N4A | 0.143 |

| Variant | ratio to parent |
| --- | --- |
| chain 5 N4C | 0.164 |
| chain 5 N4D | 0.118 |
| chain 5 N4E | 0.188 |
| chain 5 N4F | 0.255 |
| chain 5 N4G | 0.158 |
| chain 5 N4H | 0.293 |
| chain 5 N4I | 0.183 |
| chain 5 N4K | 0.189 |
| chain 5 N4L | 0.204 |
| chain 5 N4M | 0.133 |
| chain 5 N4P | 0.196 |
| chain 5 N4Q | 0.0254 |
| chain 5 N4R | 0.181 |
| chain 5 N4S | 0.222 |
| chain 5 N4T | 0.137 |
| chain 5 N4V | 0.132 |
| chain 5 N4W | 0.176 |
| chain 5 N4Y | 0.0862 |
| chain 5 S1A | 0.221 |
| chain 5 S1C | 0.181 |
